Series [1] concerns the target Antp HD (control without DERT; Antp HD-MID) (UniProt P02833). As to the kind of experiment: fluorescence anisotropy. As to conditions: pH 5.8, 200 mM KCl, Antp Kd: 20 mM potassium succinate pH 5.8, 0.4 mM NaF, HMGB1: 10 mM K phosphate pH 7.5, 1 mM DTT, 1 mM MgCl2, 100 mM KCl, 25 C, Antp stopped-flow: …. A general note: Polarisation of emitted light reports the rotation of a fluorescent probe.

For the next series, the target named is Antp HD-DERT11 (UniProt P02833). As to the kind of experiment: fluorescence anisotropy. As to conditions: pH 5.8, 200 mM KCl, Antp Kd: 20 mM potassium succinate pH 5.8, 0.4 mM NaF, HMGB1: 10 mM K phosphate pH 7.5, 1 mM DTT, 1 mM MgCl2, 100 mM KCl, 25 C, Antp stopped-flow: ….
Sequence of Antp HD-DERT11 (P02833 whole entry): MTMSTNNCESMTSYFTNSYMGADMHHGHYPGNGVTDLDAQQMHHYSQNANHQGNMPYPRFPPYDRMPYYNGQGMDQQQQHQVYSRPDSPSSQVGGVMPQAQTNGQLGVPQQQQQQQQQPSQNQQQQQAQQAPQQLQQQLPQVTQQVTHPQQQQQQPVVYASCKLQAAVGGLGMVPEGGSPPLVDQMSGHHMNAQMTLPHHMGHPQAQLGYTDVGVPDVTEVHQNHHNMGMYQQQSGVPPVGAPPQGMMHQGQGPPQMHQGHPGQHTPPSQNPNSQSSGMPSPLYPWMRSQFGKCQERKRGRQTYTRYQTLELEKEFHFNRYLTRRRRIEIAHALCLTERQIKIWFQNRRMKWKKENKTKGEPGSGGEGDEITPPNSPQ
The target of another series is Antp HD-DERT16 (UniProt P02833). As to the kind of experiment: fluorescence anisotropy. Particulars: pH 5.8, 200 mM KCl, Antp Kd: 20 mM potassium succinate pH 5.8, 0.4 mM NaF, HMGB1: 10 mM K phosphate pH 7.5, 1 mM DTT, 1 mM MgCl2, 100 mM KCl, 25 C, Antp stopped-flow: ….
Sequence of Antp HD-DERT16 (P02833 whole entry): as above
Another series has as its target Antp HD-DERT7 (UniProt P02833). As to the kind of experiment: fluorescence anisotropy. As to conditions: pH 5.8, 200 mM KCl, Antp Kd: 20 mM potassium succinate pH 5.8, 0.4 mM NaF, HMGB1: 10 mM K phosphate pH 7.5, 1 mM DTT, 1 mM MgCl2, 100 mM KCl, 25 C, Antp stopped-flow: ….
The next series has as its target HMGB1 full-length (human, UniProt P09429 1-215). As to the kind of experiment: competition (fluorescence anisotropy); 10 mM K phosphate pH 7.5, 1 mM DTT, 1 mM MgCl2, 100 mM KCl, 25 C; apparent Kd; Antp Kd: 20 mM potassium succinate pH 5.8, 0.4 mM NaF, 200 mM KCl; HMGB1: 10 mM K phosphate pH 7.5, 1 mM DTT, 1 mM MgCl2, 100 mM KCl, 25 C; Antp stopped-flow: 1. As to conditions: protein: recombinant.

Sequence of HMGB1 full-length (P09429 whole entry): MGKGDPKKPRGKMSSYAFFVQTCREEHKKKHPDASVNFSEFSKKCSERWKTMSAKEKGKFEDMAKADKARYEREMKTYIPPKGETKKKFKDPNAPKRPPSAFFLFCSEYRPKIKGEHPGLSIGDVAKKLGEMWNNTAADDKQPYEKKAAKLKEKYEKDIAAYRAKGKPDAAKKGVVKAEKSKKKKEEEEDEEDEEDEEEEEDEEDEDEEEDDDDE
Sequence of Antp HD-DERT7 (P02833 whole entry): as the sequence (P02833 whole entry) above
Sequence of Antp HD (control without DERT; Antp HD-MID) (P02833 whole entry): as above

Take “TAMRA-labeled 15-bp Antp recognition DNA”: the Kd in series [1] came out at 2.6 nM; in the series with Antp HD-DERT11, 69 nM; with Antp HD-DERT16, 61 nM; with Antp HD-DERT7, 19 nM.

B1: unlabeled cisplatin-modified DNA (dsDNA)
DNA 1: CTCTGGACCTTCCTTTCTTC
DNA 2: GAAGAAAGGAAGGTCCAGAG
modifications: cisplatin adduct
With B1, the Kd with HMGB1 full-length came to 17 ± 3 nM.

(Values after publication PMC10250230, “Negatively charged, intrinsically disordered regions can accelerate target search by DNA-binding proteins”.)
